Source: article PMC2935283, “Molecular recognition between Escherichia coli enolase and ribonuclease E” (Acta Crystallographica Section D: Biological Crystallography, 2010)

Target: the molecule itself
Test: native MS; enolase mixed with the microdomain in a 1:1.5 molar ratio, room temperature, 20 min; nanoflow ESI, tandem nondissociating QTOF-MS/MS

B1: Escherichia coli enolase (enzyme, E. coli)
chain: MSKIVKIIGREIIDSRGNPTVEAEVHLEGGFVGMAAAPSGASTGSREALELRDGDKSRFLGKGVTKAVAAVNGPIAQALIGKDAKDQAGIDKIMIDLDGTENKSKFGANAILAVSLANAKAAAAAKGMPLYEHIAELNGTPGKYSMPVPMMNIINGGEHADNNVDIQEFMIQPVGAKTVKEAIRMGSEVFHHLAKVLKAKGMNTAVGDEGGYAPNLGSNAEALAVIAEAVKAAGYELGKDITLAMDCAASEFYKDGKYVLAGEGNKAFTSEEFTHFLEELTKQYPIVSIEDGLDESDWDGFAYQTKVLGDKIQLVGDDLFVTNTKILKEGIEKGIANSILIKFNQIGSLTETLAAIKMAKDAGYTAVISHRSGETEDATIADLAVGTAAGQIKTGSMSRSDRVAKYNQLIRIEEALGEKAPYNGRKEIKGQA
notes: enolase (EC 4.2.1.11), E. coli; overexpressed from pET11a; Purified as described in Kuhnel & Luisi, 2001; Homodimer in the crystal and by nondissociating mass spectrometry; also called enolase dimer; dimeric enolase; source: E. coli BL21 (DE3), pET11a vector, purified
B1 was tested, and the “stoichiometry N” value was 2.
